We go through seven molecules from patent US20240376185A1 (SMIVET B V, published 2024).

In assay [1] the target is T1, tetanus neurotoxin (TeNT), authentic tetanus holotoxin (Clostridium tetani, UniProt P04958 2-1315). As to the kind of experiment: bridging ELISA: coated TeNT, SDA, biotinylated TeNT, StrepPO (bivalent binding). Background: ELISA stands for enzyme-linked immunosorbent assay.
Assay [2] concerns the target T2, horse albumin (horse Alb) (horse, UniProt P35747 25-607). As to the kind of experiment: bridging ELISA: cAb-TT2-captured TeNT, SDA, biotinylated horse Alb, StrepPO.
Assay [3] addresses T3, dog albumin (dog Alb) (dog, UniProt P49822 25-608).
T3 construct: also called Canine albumin
As to the kind of experiment: ELISA: coated dog Alb, anti-his6 PO.

The target of assay [4] is T1, tetanus neurotoxin (TeNT), authentic …. The experiment in a line: bridging ELISA: coated TeNT, SDA, biotinylated TeNT, StrepPO (bivalent binding). The source holds these as a separate data set.
The target is the same in assay [5]. As to the kind of experiment: GT1b-TeNT inhibition ELISA.
Assay [6] shares this target. As to the kind of experiment: BLI (Octet Red96): biotinylated TeNT on SA sensor, SDA as analyte. Background: In BLI a coated tip is dipped into the sample, and binding shifts an interference pattern.
For assay [7] the target is unchanged. The experiment in a line: ELISA: directly coated TeNT, anti-his6 PO.
For assay [8] the target is unchanged. The experiment in a line: ELISA: directly coated TeNT, goat anti-llama Ig PO.
The target is the same in assay [9]. The experiment in a line: ELISA: directly coated TeNT, goat anti-llama Ig PO. The source holds these as a separate data set.
Assay [10] concerns the target T3, dog albumin (dog Alb). The experiment in a line: ELISA: coated dog Alb, anti-his6 PO. This is another data set of the same source.
In assay [11] the target is T2, horse albumin (horse Alb). The experiment in a line: bridging ELISA: cAb-TT2-captured TeNT, SDA, biotinylated horse Alb, StrepPO. The source holds these as a separate data set.
The target in assay [12] is T1, tetanus neurotoxin (TeNT), authentic …. As to the kind of experiment: GT1b-TeNT inhibition ELISA. The source holds these as a separate data set.
For assay [13] the target is unchanged. The experiment in a line: ELISA: directly coated TeNT, anti-his6 PO. This is another data set of the same source.
A further assay deals with T4, horse serum albumin (horse, UniProt P35747 25-607).
T4 construct: mature; also called horse Alb; Equine albumin
As to the kind of experiment: BLI, Octet Red96.

The target in assay [14] is T5, chicken ovalbumin (chicken, UniProt P01012 2-386).
T5 construct: also called Chicken Alb
T5 sequence (looked up): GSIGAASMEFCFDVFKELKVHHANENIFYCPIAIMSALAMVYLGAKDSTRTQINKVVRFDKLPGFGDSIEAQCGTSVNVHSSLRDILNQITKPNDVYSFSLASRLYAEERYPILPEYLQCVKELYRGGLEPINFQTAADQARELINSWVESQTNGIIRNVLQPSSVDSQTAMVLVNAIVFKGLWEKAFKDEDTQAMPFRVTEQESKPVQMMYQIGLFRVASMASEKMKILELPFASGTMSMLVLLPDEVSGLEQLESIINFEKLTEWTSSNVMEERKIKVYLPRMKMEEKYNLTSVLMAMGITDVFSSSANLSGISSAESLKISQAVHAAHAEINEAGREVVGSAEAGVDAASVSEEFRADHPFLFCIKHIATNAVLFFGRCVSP
The experiment in a line: ELISA; A450 below 0.2 at highest SDA concentration.

Assay [15] has as its target T6, bovine albumin (bovine, UniProt P02769 25-607). The experiment in a line: ELISA; A450 below 0.2 at highest SDA concentration.
Assay [16] addresses T7, sheep albumin (sheep, UniProt P14639 25-607). The experiment in a line: ELISA; A450 below 0.2 at highest SDA concentration.
Assay [17] addresses T8, human albumin (human, UniProt P02768 25-609). The experiment in a line: ELISA; A450 below 0.2 at highest SDA concentration.
The target of assay [18] is T5, chicken ovalbumin. As to the kind of experiment: ELISA on coated albumin.
In assay [19] the target is T9, dog albumin (dog, UniProt P49822 25-608).
T9 construct: also called Canine albumin
The experiment in a line: ELISA on coated albumin.

Assay [20] addresses T10, horse albumin (horse, UniProt P35747 25-607).
T10 construct: also called Equine albumin
The experiment in a line: ELISA on coated albumin.

In assay [21] the target is T11, swine albumin (swine, UniProt P08835 25-607).
T11 construct: also called Porcine albumin
The experiment in a line: ELISA on coated albumin.

Assay [22] concerns the target T6, bovine albumin. The experiment in a line: ELISA on coated albumin.
Assay [23] concerns the target T7, sheep albumin. As to the kind of experiment: ELISA on coated albumin.
Assay [24] deals with T8, human albumin. As to the kind of experiment: ELISA on coated albumin.
A further assay concerns the target mouse albumin (mouse, UniProt P07724 25-608). The experiment in a line: ELISA on coated albumin.
In assay [25] the target is T12, cat albumin (cat, UniProt P49064 25-608).
T12 construct: also called Feline albumin
As to the kind of experiment: ELISA on cat albumin captured from serum.

Assay [26] addresses T13, Dog albumin (dog, UniProt P49822 25-608).
T13 construct: also called Canine albumin; Canine Alb
The experiment in a line: BLI (Octet Red96), SDA on Ni-NTA sensor, albumin as analyte.

Assay [27] deals with T14, Swine albumin (swine, UniProt P08835 25-607).
T14 construct: also called Porcine Alb
The description is as above.

Assay [28] addresses T15, Cat albumin (cat, UniProt P49064 25-608).
T15 construct: also called Feline albumin; Feline Alb
Described as above.

Assay [29] concerns the target T16, Horse albumin (horse, UniProt P35747 25-607).
T16 construct: also called Equine albumin; Equine Alb
The assay is described as above.

B1: SVT06-GS2-SVA12M2-H6 (bispecific antibody)
chain: QVQLQESGGGSVQAGGSLRLSCTASELSYDDYTIAWFRRAAGEGRVEDGEGVASITKSYDRAYDNKINYGHSVKGRFTISRDNAKNTVYLQMTDLLPSDTAVYYCALDITPPGGVGASLTEGFLFDYWGQGTQVTVSSGGGGSGGGSEVQLVESGGGLVQAGGSLRLSCAASGRTFSYYPMAWFRQAPGQEREFVAAIIGADTTYYADSLKGRFTISRDNAKNMVYLQMNSLKPEDTAVYYCAARNTYWSDVYYREGQYTNWGQGTQVTVSSHHHHHH
Regarding B1, the maximal absorbance value in [1] worked out at 0.66 A450; in assay [2], 1.47 A450; in [7], 1.59 A450; in assay [8] it was 1.21 A450; with dog albumin (dog Alb) [10], 1.67 A450. Further, the “Effective SDA Concentration at A450 0.2” value with dog albumin (dog Alb) [3] turned out to be 39 ng/mL. The “Effective SDA Concentration at A450 0.3” value in [4] is 19 ng/mL. Further, the “minimal absorbance value (GT1b-TeNT inhibition)” value in assay [5] was found to be 0.18 A450. This molecule yielded a Kd in [6] of 0.151 nM. The koff in assay [6] was found to be 8.9e-05 s⁻¹. This molecule also registered a kon in assay [6] of 591000 M⁻¹ s⁻¹. Besides, the “Effective SDA Concentration at A450 0.15” value in [9] came to 1.1 ng/mL; in assay [13], 3.5 ng/mL. Moreover, in assay [11], the “Effective SDA Concentration at A450 0.7” value was 1.5 ng/mL. The “Effective SDA Concentration at A450 0.56” value in assay [12] stood at 55 ng/mL.

B2: SVT16-L123Q-GS2-SVG13M4-H6 (bispecific antibody)
chain: QVQLQESGGGSVQAGDSLRLSCAASGRTISNYAMGWFRQAPGKQREFVAAISRSDNTYYTDSVKGRFTISRDNAKNTLYLQMNSLKPEETAVYYCAADPNLMYESKWKYRALEAWGQGTQVTVSSGGGGSGGGSEVQLVESGGGLVQPGGSLRLSCEASGFTFDDYGMSWVRQAPGKGLEWVSSLTPNGGSTYYADSVKGRFTISRDNAKNTLYLQMNSLKPEDTALYYCAKNSYYGAMDYWGQGTQVTVSSHHHHHH
In the case of B2, the binding result with horse serum albumin was “no binding (tested: 100 nM)”.

B3: SVA06L (VHH)
VHH: QVQLQESGGRLVQAEDSLRLSCAASGRTFVSYDMGWFRQAPGKEREFVAAINWRGYTTDYVDSVKGRFFISRDIAKSTVYLQMNNLKPEDTAVYYCAARQMSGSSRYSPPGRVGYDFWGQGTQVTVSS
Regarding B3, the binding result with chicken ovalbumin [14], with bovine albumin [15], in the assay with sheep albumin [16] and with human albumin [17] was “no binding (tested: 1000 ng/ml)” each time. Moreover, the “maximal absorbance value at 450 nm” value with chicken ovalbumin [18] was found to be 0.054 A450; in the assay with dog albumin [19] it was 0.921 A450; in the assay with horse albumin [20], 0.483 A450; with swine albumin [21] it was 0.288 A450; with bovine albumin [22], 0.052 A450; in the assay with sheep albumin [23] it was 0.052 A450. In addition, the entries for the “maximal absorbance value at 450 nm” value in the assay with human albumin [24], in the assay with mouse albumin and in the assay with cat albumin [25] were 0.05 A450, 0.36 A450 and 0.158 A450, respectively. Moreover, the “SDA Effective Concentration resulting in A450 nm = 0.2” value with dog albumin [19] was found to be 51 ng/mL; with horse albumin [20], 235 ng/mL; with swine albumin [21] it was 344 ng/mL; with mouse albumin it was 180 ng/mL.

B4: SVA12L (VHH)
VHH: QVQLQESGGGLVQAGGSLRLSCAASGRTFSYYPMAWFRQAPGQEREFVAAIIGADTTYYADSLKGRFTISRDNAKNMVYLQMNSLKPEDTAVYYCAARNTYWSDVYYREGQYTNWGQGTQVTVSS
Turning to B4, the Kd with Dog albumin [26] came to 271 nM; with Swine albumin [27], 159 nM; in the assay with Cat albumin [28], 19 nM; in the assay with Horse albumin [29] it was 10.7 nM. The koff amounted to 0.0125 s⁻¹ in the assay with Dog albumin [26], 0.0238 s⁻¹ in the assay with Swine albumin [27], 0.000737 s⁻¹ with Cat albumin [28] and 0.00109 s⁻¹ with Horse albumin [29]. The kon with Dog albumin [26] was 45900 M⁻¹ s⁻¹; with Swine albumin [27] it was 150000 M⁻¹ s⁻¹; with Cat albumin [28], 38800 M⁻¹ s⁻¹; with Horse albumin [29], 101000 M⁻¹ s⁻¹.

B5: SVG13L (VHH)
VHH: QVQLQESGGGLVQPGGSLRLSCEASGFTFDDYGMSWVRQAPGKGLEWVSSLTPNGGSTYYADSVKGRFTISRDNAKNTLYLQMNSLKPEDTALYYCAKNSYYGAMDYWGKGTLVTVSS
notes: yeast-produced
Take B5: in the assay with horse serum albumin, the binding result is “no binding (tested: 100 nM)”.

B6: SVT02-GS2-SVA12M2-H6 (bispecific antibody)
chain: QVQLQQSGGGSVQAGGSLRLSCVGPQRTFSTYGMGWFRQAPGKEREFVAGINYKGDTTYYADSVKGRFTISRDNAKNTLYLQMDSLKPEDRAVYQCARKGGLGGDYRDAGQYRYWGQGTQVTVSSGGGGSGGGSEVQLVESGGGLVQAGGSLRLSCAASGRTFSYYPMAWFRQAPGQEREFVAAIIGADTTYYADSLKGRFTISRDNAKNMVYLQMNSLKPEDTAVYYCAARNTYWSDVYYREGQYTNWGQGTQVTVSSHHHHHH
In the case of B6, the maximal absorbance value is 1.1 A450 in assay [2] and 1.91 A450 in the assay with dog albumin (dog Alb) [10]. In addition, in the assay with dog albumin (dog Alb) [3], the “Effective SDA Concentration at A450 0.2” value stood at 13 ng/mL. Also, the “Effective SDA Concentration at A450 0.7” value in assay [11] is 11 ng/mL.

B7: SVT15-3FW4M-GS2-SVA12M2-H6 (bispecific antibody)
chain: QVQLQESGGGLVQTGGSLRLSCRASGRAFANYHFGWFRQAPGKDREFVASISWKGGSTYYANFALGRFTSSVDRAESSVYLQMSGLTPEDTATYYCAAHDGGDWNYHTGMDYWGQGTQVTVSSGGGGSGGGSEVQLVESGGGLVQAGGSLRLSCAASGRTFSYYPMAWFRQAPGQEREFVAAIIGADTTYYADSLKGRFTISRDNAKNMVYLQMNSLKPEDTAVYYCAARNTYWSDVYYREGQYTNWGQGTQVTVSSHHHHHH
Consider B7, for which the maximal absorbance value in [1] was found to be 0.64 A450; in [2], 1.34 A450; in assay [7] it was 1.35 A450; in assay [8], 1.36 A450; with dog albumin (dog Alb) [10], 1.55 A450. In addition, the “Effective SDA Concentration at A450 0.2” value with dog albumin (dog Alb) [3] was determined as 76 ng/mL. In assay [4], the “Effective SDA Concentration at A450 0.3” value is 33 ng/mL. The “minimal absorbance value (GT1b-TeNT inhibition)” value in assay [5] worked out at 0.15 A450. For the same molecule, the “Effective SDA Concentration at A450 0.15” value in assay [9] was found to be 2 ng/mL; in [13], 8 ng/mL. The “Effective SDA Concentration at A450 0.7” value in [11] was 3.9 ng/mL. In addition, the “Effective SDA Concentration at A450 0.56” value in assay [12] came out at 78 ng/mL.

One may read the Kd as a measure of binding affinity in units of concentration. The low end stands for a tighter complex, the high end for a looser complex. What is called koff is the rate constant with which the complex falls apart. Low readings indicate slow dissociation, high ones fast dissociation. For orientation: kon means the second-order rate constant of association.
